For one molecule, Kd and IC50 results are on record in patent CN110156895A (SHANGHAI JIABEI BIOMEDICAL TECH CO LTD, dated 2019).

A word on the Kd: it is the constant that tells how readily two partners part at equilibrium. A high value points to a looser complex. The IC50 is the midpoint of a concentration-inhibition curve.

Assay [1] concerns the target T1, 人PD-L1胞外区-6His (human, UniProt Q9NZQ7 19-238).
T1 construct: also called PD-L1-6His; 人PD-L1胞外结构区-6His蛋白
The assay can be described thus: SPR (Biacore), multi-cycle kinetics; antibody captured on Protein A chip, PD-L1 as analyte from 40 nM in 2-fold dilutions, 6 concentrations. (In general: In SPR one partner is held on a chip, and binding of the other changes the refractive index at the surface.)

The target in assay [2] is T1, 人PD-L1胞外区-6His. The experiment in a line: AlphaLISA competition: antibody titrated against binding of His-tagged PD-L1 to biotinylated PD-1. (In Alpha technology, singlet oxygen from a donor bead excites a nearby acceptor bead.)

T1 sequence (Q9NZQ7 other isoform, or with tags, fused parts or gaps): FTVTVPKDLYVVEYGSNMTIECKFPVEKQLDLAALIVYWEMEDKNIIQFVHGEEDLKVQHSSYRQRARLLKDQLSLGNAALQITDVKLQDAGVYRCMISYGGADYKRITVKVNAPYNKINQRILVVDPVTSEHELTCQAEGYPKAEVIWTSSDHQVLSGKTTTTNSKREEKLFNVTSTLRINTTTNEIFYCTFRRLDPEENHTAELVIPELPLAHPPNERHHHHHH

B1: 抗PD-L1全人源单克隆抗体 (antibody, V domains shown)
VH: QVQLVQSGGELKRPGSSVKVSCKASGGTFSSYAISWVRQAPGQGLEWMGRIIPIFGTANYAQKFQGRVTITADESTSTAYMELSSLRSEDTAVYYCASSSYRHFAFDIWGQGTTVTVSS
VL: QSALTQPASVSGSPGQSITISCTGTSSDVGSYNLVSWYQQHPGKAPKLMIYEVTKRPSGVSNRFSGSKSGNTASLTISGLQAEDEADYYCSSYAGSNNLVFGGGTKVTVL
notes: also called 抗PD-L1抗体; 抗PD-L1全长抗体
Regarding B1, the equilibrium dissociation constant (Kd) in assay [1] was 7.1 nM. The 50% inhibitory concentration (IC50) in assay [2] was determined as 0.0372 µg/mL.
